Results taken from publication PMC9563126, “Identification of a flavonoid C-glycosyltransferase from fern species Stenoloma chusanum and the application in synthesizing flavonoid C-glycosides in Escherichia coli” (Microbial Cell Factories, 2022).

Key:
[1] = substrate: O=C(CCc1ccc(O)cc1)c1c(O)cc(O)cc1O; assay: HPLC glycosylation assay, Lineweaver-Burk; format: biochemical, Odontosoria chinensis; details: 1 mM UDP-glucose, 200 mM MES pH 6.5, 1 mM DTT, 30 °C, 15 min, acceptor varied
Description: (§1) HPLC glycosylation assay, Lineweaver-Burk on ScCGT1

[2] = substrate: O=C1CC(O)(c2ccc(O)cc2)Oc2cc(O)cc(O)c21; assay: HPLC glycosylation assay, Lineweaver-Burk; format: biochemical, Odontosoria chinensis; details: 1 mM UDP-glucose, 200 mM MES pH 6.5, 1 mM DTT, 30 °C, 15 min, acceptor varied
Description: as §1

Protein	Km [1] [µM]	Vmax [1] [µmol/min/mg]	kcat [1] [s⁻¹]	kcat/Km [1] [M⁻¹ s⁻¹]	Km [2] [µM]	Vmax [2] [µmol/min/mg]	kcat [2] [s⁻¹]	kcat/Km [2] [M⁻¹ s⁻¹]
ScCGT1 (Odontosoria chinensis) (protein) MASCDTGLLSDQRHHALMFPYPVQGHIQPFMRLSKLLATNYGFTISFFNSEENHRRLLADRDEPASQEDRAEDAEGKPLDFRMLFLPDVLPSSTEVEQMSAGTHIEKSHVLLSKTFLNTDPAALETLIRSQSPPITCLILDPLVTVIAPGLGEKLGITSLIFFPASAASLATAIRSGEVDGDAKQMTRIVGAPVLDVKEVNPFLSICGRGHSDFMARLFTQPFRKKLIKANDIILINTVEELEESTLKHLQEENKVCAIGPVLPPWGAFAVPTLWSQDYSCLDWLDKQPAASVLFVSFGSLATLSSTQLSDLALGLEASNQRILWVTRPDQIYGKAPDLPSDFLERIKDRILVFSWVPQLHVLCHTSVGGFLSHCGWNSTIESIAAGVPILAWPFFGDQMLNAKCVVEKWRIGLALTGAGGAMSKAVVETRVKDLMEGDLSKELRNRAQNLKHIVVKALSHGGSSSSNLQKLFGHL	23.8 ± 2.8	0.011	0.0133 ± 0.000333	560	17.5 ± 2.0	0.0115	0.0133 ± 0.000167	795
ScCGT1 (Odontosoria chinensis; P164T) (protein) MASCDTGLLSDQRHHALMFPYPVQGHIQPFMRLSKLLATNYGFTISFFNSEENHRRLLADRDEPASQEDRAEDAEGKPLDFRMLFLPDVLPSSTEVEQMSAGTHIEKSHVLLSKTFLNTDPAALETLIRSQSPPITCLILDPLVTVIAPGLGEKLGITSLIFFTASAASLATAIRSGEVDGDAKQMTRIVGAPVLDVKEVNPFLSICGRGHSDFMARLFTQPFRKKLIKANDIILINTVEELEESTLKHLQEENKVCAIGPVLPPWGAFAVPTLWSQDYSCLDWLDKQPAASVLFVSFGSLATLSSTQLSDLALGLEASNQRILWVTRPDQIYGKAPDLPSDFLERIKDRILVFSWVPQLHVLCHTSVGGFLSHCGWNSTIESIAAGVPILAWPFFGDQMLNAKCVVEKWRIGLALTGAGGAMSKAVVETRVKDLMEGDLSKELRNRAQNLKHIVVKALSHGGSSSSNLQKLFGHL	29.8 ± 2.5	0.0334	0.04 ± 0.000833	1360	31.7 ± 2.9	0.0399	0.0483 ± 0.001	1520
